Common to all, as to format: cell-based
The test system of one assay is Ceratosystis paradoxa. Nature of the assay: organism not typed. As to conditions: Ceratosystis paradoxa DSMZ 63054, PDA, 18° C., overnight. As to the method:
(§1) The antimicrobial potential of the peptides described herein was compared with the activity of two other AMPs, TcAMP1 and TcAMP2 as discussed in WO1998027805, and antibiotics or fungicides. Comparative MIC assays were carried out against several bacterial and fungal species (Table 1).
(§2) Peptides according to SEQ ID N° 1, SEQ ID N° 2, SEQ ID N° 4, SEQ ID N° 6, and SEQ ID N° 7 were serially diluted in order to create a concentration sequence ranging from 0.39 μg/ml to […].
(§3) Pantoea, Staphylococcus, and Listeria were cultured in Trypticase Soy Broth (TSY) medium consisting of 1.7% casein peptone, 0.3% soy peptone, 0.25% glucose, 0.5% NaCl, 0.25% K2HPO4 and optionally 1.5% agar. Candida cells were cultured in Yeast Extract Peptone Dextrose (YPD) broth medium consisting of 1% yeast extract, 2% peptone, 2% glucose, and optionally 2% agar. Ceratocystis, Botrytis, Leptosphaeria, Mycosphaerella, Sclerotinia, and Verticillium were cultured in Potato Dextrose Agar (PDA) medium consisting of 2.4% Difco pre-mix broth and optionally 1.5% agar.
(§4) For the MIC assay bacteria and fungi were grown on agar plates with their respective media. Pre-cultures were prepared by inoculating either single bacterial colonies or small pieces of fungi in 5 ml of the respective liquid medium. The optical density (OD) at 600 nm was measured after one to five days and adjusted to an OD600 of 1. This cell suspension was used to prepare 1:500 dilutions, corresponding to approximately 2×10^6 microbial cells per ml.
(§5) To evaluate MICs, 96-well plates were prepared with the test antimicrobial peptides. Each well contained 100 μl microbial cell culture, 90 μl culture medium, and 10 μl peptide or control at the corresponding dilution. The plates were incubated overnight (ON) at the optimal growth temperature for each tested organism (Table 1). Results were visually evaluated and MICs determined based on growth or no-growth.
(§6) MIC assays were conducted in at least two independent replicates and with different peptide starting concentrations.

The next assay relates to Pantoea agglomerans. As to conditions: Pantoea agglomerans JUB-CC-3253, TSY, 37° C., overnight. The procedure:
as §1, §2, §3, §4, §5, §6

For assay [1], the system named is several bacterial and fungal species. Nature of the assay: Comparative MIC assays, all tested organisms. As to conditions: bacterial species of Table 3, all tested species. The procedure: as §1, §2, §3
For the MIC assay bacteria and fungi were grown on agar plates with their respective media. […] The optical density (OD) at 600 nm was measured after one to five days and adjusted to an OD600 of 1. […]
To evaluate MICs, 96-well plates were prepared with the test antimicrobial peptides. […] Results were visually evaluated and MICs determined based on growth or no-growth. […]

For assay [2], the system named is Staphylococcus aureus MRSA. Nature of the assay: microbe, parasite or virus in culture. As to conditions: Staphylococcus aureus MRSA DSM 11729, TSY, 37° C., overnight. The procedure: as §1, §2, §3, §4, §5, §6
For the next assay, the system named is Verticillium dahliae. Nature of the assay: microbe, parasite or virus in culture. As to conditions: Verticillium dahliae SF 76, PDA, 28° C., overnight. As to the method: as §1, §2, §3, §4, §5, §6
The test system of another assay is Mycosphaerella pinodes. Kind of assay: microbe, parasite or virus in culture. As to conditions: Mycosphaerella pinodes DSMZ 62763, PDA, 30° C., overnight. The procedure:
as §1, §2, §3, §4, §5, §6

The subject of assay [3] is Listeria monocytogenes. Nature of the assay: microbe, parasite or virus in culture. As to conditions: Listeria monocytogenes DSM 102976, TSY, 37° C., overnight. As to the method: as §1, §2, §3, §4, §5, §6
In a further assay the test system is Sclerotinia sclerotiorum. Nature of the assay: microbe, parasite or virus in culture. As to conditions: Sclerotinia sclerotiorum SF 79, PDA, 18° C., overnight. The procedure: as §1, §2, §3, §4, §5, §6
A further assay relates to Candida albicans. Kind of assay: microbe, parasite or virus in culture. As to conditions: Candida albicans DSM 1386, YPD, 30° C., overnight. As to the method:
as §1, §2, §3, §4, §5, §6

A further assay concerns Botrytis cinerea. Nature of the assay: microbe, parasite or virus in culture. As to conditions: Botrytis cinerea DSMZ 877, PDA, 24° C., overnight. The procedure:
as §1, §2, §3, §4, §5, §6

Another assay deals with Leptosphaeria maculans. Kind of assay: microbe, parasite or virus in culture. As to conditions: Leptosphaeria maculans SF 70, PDA, 18° C., overnight. As to the method: as §1, §2, §3, §4, §5, §6
The test system of another assay is E. coli. Nature of the assay: MIC assay, E. coli. As to the method: as §1, §2, §4, §5, §6
For the next assay, the system named is C. albicans. Kind of assay: Peptide stability in bodily fluids (sheep blood, urine), MIC against C. albicans. As to conditions: Candida albicans. The procedure:
In vitro experiments were conducted to test the behavior of the peptides as disclosed herein in blood, against C. albicans. C. albicans isolates from human blood were used (DSMZ 6569). The peptide according to the SEQ ID N° 1 was adjusted to a concentration of 1 mg/ml and mixed with sheep blood in equal parts. This mixture was incubated overnight at 30° C. To remove solid parts of the blood, the mixture was centrifuged and the obtained plasma supernatant was used for MICs.
In vitro experiments were conducted to test the behavior of the peptides as disclosed herein in urine, against C. albicans. The peptide according to the SEQ ID N° 1 was adjusted to a concentration of 1 mg/ml and mixed with synthetic urine or human urine in equal parts. These mixtures were incubated overnight at 30° C. To remove solid parts of the urine, the mixture was centrifuged and the obtained supernatant was used for MICs.

For a further assay, the system named is Erwinia amylovora. Kind of assay: MIC assay in soil slurry. The procedure:
In vitro experiments were conducted to test the behavior of the peptides as disclosed herein in soil slurry, against Erwinia amylovora. Soil slurry was generated by mixing 5 g soil in 20 ml water. This mixture was incubated for 1 h at an overhead shaker. The solid parts were removed by centrifugation and the obtained supernatant, referred to as soil slurry, was used for the MIC assay. Equal volumes of the peptide according to SEQ ID N°1 (8 mg/ml) and soil slurry were mixed and incubated overnight at 28° C. The mixture was used for MIC against Erwinia amylovora.

The subject of assay [4] is Listeria monocytogenes. Nature of the assay: Cow milk assay, MIC against Listeria monocytogenes. The procedure:
In vitro experiments were conducted to test the behavior of the peptides as disclosed herein in 3.5% fat cow milk, against Listeria monocytogenes. The peptide according to the SEQ ID N° 1 was adjusted to a concentration of 1 mg/ml and mixed with cow milk in equal parts. This mixture was incubated overnight at 37° C. To remove solid parts of the milk, the mixture was centrifuged and the obtained supernatant was used for MICs.

We go through two molecules from patent US20250296963A1, “PEPTIDE HAVING ANTIMICROBIAL ACTIVITY” (priority 2022, published 2025).

B1: SEQ ID No 2: Cocoa vicilin-derived antimicrobial peptide of the invention, recombinant or synthetic, mass of 15.3 kDa (peptide)
chain: YGRKQYERDPRQQYEQCQRRCESEATEEREQEQCEQRCEREYKEQQRQQEEELQRQYQQCQGRCQEQQQGQREQQQCQRKCWEQYKEQERGEHENYHNHK
modifications: peptide according to an embodiment of the invention
notes: Cocoa vicilin-derived antimicrobial peptide of the invention, recombinant or synthetic, mass of 15.3 kDa
Consider B1, for which the Minimal inhibitory concentration amounted to 6.25 mg/L in the assay on Ceratosystis paradoxa; 1.9 mg/L with Pantoea agglomerans; 7.1 mg/L in assay [2]; 3.1 mg/L with Verticillium dahliae; 4.5 mg/L with Mycosphaerella pinodes; 7.1 mg/L in the assay on Listeria monocytogenes [3]. The Minimal inhibitory concentration was determined as 19.3 mg/L in the assay on Sclerotinia sclerotiorum; 3.1 mg/L with Candida albicans; 6.25 mg/L in the assay with Botrytis cinerea; 6.25 mg/L with Leptosphaeria maculans; 6.2 mg/L with E. coli. Further, the “efficiency compared with the prior art peptides” value in assay [1] is listed as “more efficient than the prior art peptides”.

B2: SEQ ID No 1: Antimicrobial peptide from the N-terminal region of Theobroma cacao (CCN-51) vicilin protein, 15 kDa spot; natural, recombinant or synthetic (peptide)
chain: YGRKQYERDPRQQYEQCQRRCESEATEEREQEQCEQRCEREYKEQQRQQEEELQRQYQQCQGRCQEQQQGQREQQQCQRKCWEQYKEQERGEHENYHNHKKN
modifications: Theobroma cacao
notes: Antimicrobial peptide from the N-terminal region of Theobroma cacao (CCN-51) vicilin protein, 15 kDa spot; natural, recombinant or synthetic
For the molecule B2, the Minimal inhibitory concentration with Ceratosystis paradoxa stood at 5 mg/L; with C. albicans (control, no bodily fluid (and reference drug)), 0.4 mg/L; in the assay with C. albicans (peptide 1 mg/ml mixed with human urine in equal parts, overnight 30° C., supernatant), 5 mg/L; with C. albicans (peptide 1 mg/ml mixed with sheep blood in equal parts, overnight 30° C., plasma supernatant), 25 mg/L; with C. albicans (peptide 1 mg/ml mixed with synthetic urine in equal parts, overnight 30° C., supernatant), 2 mg/L; in the assay with Pantoea agglomerans, 1.1 mg/L. Moreover, the Minimal inhibitory concentration in the assay with Listeria monocytogenes [4] (control, milk-free (and reference drug)) was found to be 3.1 mg/L; in the assay with Listeria monocytogenes [4] (control, milk-free (and reference drug), listed as SEQ ID N° 1), 3.2 mg/L; with Listeria monocytogenes [4] (peptide 1 mg/ml mixed with 3.5% fat cow milk in equal parts, overnight 37° C., supernatant), 80 mg/L; in assay [2], 3.1 mg/L; in the assay with Verticillium dahliae, 1.6 mg/L; in the assay on Mycosphaerella pinodes, 1.9 mg/L. For the same molecule, the Minimal inhibitory concentration with Listeria monocytogenes [3] stood at 3.1 mg/L; in the assay on Sclerotinia sclerotiorum it was 10.25 mg/L; in the assay on Candida albicans, 0.4 mg/L; in the assay with Botrytis cinerea, 6.25 mg/L; with Leptosphaeria maculans, 3.75 mg/L; in the assay on E. coli, 3.1 mg/L. For the same molecule, the “concentration inhibiting bacteria growth (MIC)” value in the assay with Erwinia amylovora (control conditions) came out at 15 mg/L; in the assay on Erwinia amylovora (peptide (8 mg/ml) mixed with equal volume of soil slurry, overnight 28° C.) it was 25 mg/L. The “efficiency compared with the prior art peptides” value in [1] was “more efficient than the prior art peptides”.
